Residue numbers refer to the chain shown, from its start. Numbers in names are those of the source.

Sequences and labels used below:
B1: Hu16F6.v4 Fab (antibody, V domains shown)
VH: EVQLVESGPGLVKPSETLSLTCTVSGNSITSEYAWNWIRQPPGKGLEWIGYISYSGTTSYNPSLKSRVTISRDTSKNQLSLKLSSVTAADTAVYYCARYGYGNPATRYFDVWGQGTLVTVSS
VL: DIQMTQSPSSLSASVGDRVTITCRASKSISKYLAWYQQKPGKTNKLLLYSGSTLQSGVPSRFSGSGSGTDYTLTISSLQPEDFATYYCQQHNEYPWTFGQGTKVEIK
B2: Mu16F6 Fab (antibody, V domains shown)
VH: DVQLQESGPGLVKPSQSLSLTCTVTGNSITSEYAWNWIRQFPGNKLEWMGYISYSGTTSYNPSLKSRISITRDTSKNQLFLQLNSVTTEDTATYFCARYGYGNPATRYFDVWGAGTTVTVSS
VL: DVQITQSPSYLTASPGETITINCRASKSISKYLAWYQEKPGKTNKLLIYSGSTLQSGIPSRFSGSGSGTDFTLTISNLEPEDFAMYYCQQHNEYPWTFGGGTKLEIK
B3: hu15G11.v5 HC Y27A (antibody, V domains shown)
VH: EVQLVQSGAEVKKPGASVKVSCKASGATFTSYWMHWVRQAPGQRLEWIGEINPTNGRTNYIEKFKSRATLTVDKSASTAYMELSSLRSEDTAVYYCARGTRAYHYWGQGTMVTVSS
VL: DIQMTQSPSSLSASVGDRVTITCRASDNLYSNLAWYQQKPGKSPKLLVYDATNLADGVPSRFSGSGSGTDYTLTISSLQPEDFATYYCQHFWGTPLTFGQGTKVEIK
B4: hu15G11.v5 HC Y32A (antibody, V domains shown)
VH: B3 VH with A27Y, Y32A
VL: B3 VL
B5: hu15G11.v5 HC N52A (antibody, V domains shown)
VH: B3 VH with A27Y, N52A
VL: B3 VL
B6: hu15G11.v5 HC T53A (antibody, V domains shown)
VH: B3 VH with A27Y, T54A
VL: B3 VL
B7: hu15G11.v5 LC S31A (antibody, V domains shown)
VH: B3 VH with A27Y
VL: B3 VL with S31A
B8: hu15G11.v5 LC D27A (antibody, V domains shown)
VH: B3 VH with A27Y
VL: B3 VL with D27A
B9: hu15G11.v5 HC F29A (antibody, V domains shown)
VH: B3 VH with A27Y, F29A
VL: B3 VL
B10: hu15G11.v5 LC N53A (antibody, V domains shown)
VH: B3 VH with A27Y
VL: B3 VL with N53A
B11: hu15G11.v5 LC L29A (antibody, V domains shown)
VH: B3 VH with A27Y
VL: B3 VL with L29A
B12: hu15G11.v5 HC G49A (antibody, V domains shown)
VH: B3 VH with A27Y, G49A
VL: B3 VL
B13: hu15G11.v5 HC T30A (antibody, V domains shown)
VH: B3 VH with A27Y, T30A
VL: B3 VL
B14: hu15G11.v5 HC W33A (antibody, V domains shown)
VH: B3 VH with A27Y, W33A
VL: B3 VL
B15: hu15G11.v5 LC L54A (antibody, V domains shown)
VH: B3 VH with A27Y
VL: B3 VL with L54A
B16: hu15G11.v5 LC S26A (antibody, V domains shown)
VH: B3 VH with A27Y
VL: B3 VL with S26A
B17: hu15G11.v5 LC D50A (antibody, V domains shown)
VH: B3 VH with A27Y
VL: B3 VL with D50A
B18: hu15G11.v5 LC N28A (antibody, V domains shown)
VH: B3 VH with A27Y
VL: B3 VL with N28A
B19: hu15G11.v5 LC T52A (antibody, V domains shown)
VH: B3 VH with A27Y
VL: B3 VL with T52A
B20: hu15G11.v5 HC T28A (antibody, V domains shown)
VH: B3 VH with A27Y, T28A
VL: B3 VL
B21: hu15G11.v5 LC D56A (antibody, V domains shown)
VH: B3 VH with A27Y
VL: B3 VL with D56A
B22: hu15G11.v5 HC I51A (antibody, V domains shown)
VH: B3 VH with A27Y, I51A
VL: B3 VL
B23: hu15G11.v5 LC R24A (antibody, V domains shown)
VH: B3 VH with A27Y
VL: B3 VL with R24A
B24: hu15G11.v5 LC Y30A (antibody, V domains shown)
VH: B3 VH with A27Y
VL: B3 VL with Y30A
B25: hu15G11.v5 HC M34A (antibody, V domains shown)
VH: B3 VH with A27Y, M34A
VL: B3 VL
B26: hu15G11.v5 LC L33A (antibody, V domains shown)
VH: B3 VH with A27Y
VL: B3 VL with L33A
B27: hu15G11.v5 LC N32A (antibody, V domains shown)
VH: B3 VH with A27Y
VL: B3 VL with N32A
B28: hu15G11.v5 HC G26A (antibody, V domains shown)
VH: B3 VH with G26A, A27Y
VL: B3 VL
B29: hu15G11.v5 HC E50A (antibody, V domains shown)
VH: B3 VH with A27Y, E50A
VL: B3 VL
B30: hu15G11.v5 HC S31A (antibody, V domains shown)
VH: B3 VH with A27Y, S31A
VL: B3 VL
B31: hu15G11.v5 IgG (antibody, V domains shown)
VH: B3 VH with A27Y
VL: B3 VL

In one assay the target is human TfR ECD (human). The assay can be described thus: SPR.
human TfR ECD (human), sequence (chain, as listed by the source): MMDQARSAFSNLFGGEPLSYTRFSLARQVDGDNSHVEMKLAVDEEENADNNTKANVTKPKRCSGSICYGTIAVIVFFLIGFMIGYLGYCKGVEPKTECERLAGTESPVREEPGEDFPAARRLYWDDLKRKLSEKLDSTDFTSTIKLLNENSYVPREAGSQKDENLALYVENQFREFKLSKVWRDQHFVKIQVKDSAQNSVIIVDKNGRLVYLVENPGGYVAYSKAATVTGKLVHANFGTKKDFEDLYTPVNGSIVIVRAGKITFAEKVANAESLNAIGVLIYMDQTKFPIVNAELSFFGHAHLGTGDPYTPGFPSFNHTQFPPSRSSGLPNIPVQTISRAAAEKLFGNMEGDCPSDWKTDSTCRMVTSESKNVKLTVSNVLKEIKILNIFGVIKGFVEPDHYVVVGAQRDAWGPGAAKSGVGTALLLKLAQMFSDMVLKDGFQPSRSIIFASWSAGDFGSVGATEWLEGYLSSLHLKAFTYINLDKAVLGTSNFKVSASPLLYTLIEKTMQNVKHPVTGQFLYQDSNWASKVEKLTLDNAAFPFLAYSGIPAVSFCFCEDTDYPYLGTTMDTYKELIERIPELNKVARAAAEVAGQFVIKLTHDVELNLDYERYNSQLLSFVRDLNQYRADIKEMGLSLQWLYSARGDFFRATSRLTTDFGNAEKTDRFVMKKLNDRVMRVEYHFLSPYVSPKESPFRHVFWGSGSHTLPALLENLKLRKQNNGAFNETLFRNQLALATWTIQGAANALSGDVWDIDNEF
On to B1, for which binding was characterised by a dissociation constant (Kd) of 1.29 nM.

Consider B2, for which the equilibrium dissociation constant (Kd) (as a rule, the concentration at which binding is half-saturated) stood at 3.13 nM.

In another assay the target is T1, cyno TfR ECD (cynomolgus).
T1 chain: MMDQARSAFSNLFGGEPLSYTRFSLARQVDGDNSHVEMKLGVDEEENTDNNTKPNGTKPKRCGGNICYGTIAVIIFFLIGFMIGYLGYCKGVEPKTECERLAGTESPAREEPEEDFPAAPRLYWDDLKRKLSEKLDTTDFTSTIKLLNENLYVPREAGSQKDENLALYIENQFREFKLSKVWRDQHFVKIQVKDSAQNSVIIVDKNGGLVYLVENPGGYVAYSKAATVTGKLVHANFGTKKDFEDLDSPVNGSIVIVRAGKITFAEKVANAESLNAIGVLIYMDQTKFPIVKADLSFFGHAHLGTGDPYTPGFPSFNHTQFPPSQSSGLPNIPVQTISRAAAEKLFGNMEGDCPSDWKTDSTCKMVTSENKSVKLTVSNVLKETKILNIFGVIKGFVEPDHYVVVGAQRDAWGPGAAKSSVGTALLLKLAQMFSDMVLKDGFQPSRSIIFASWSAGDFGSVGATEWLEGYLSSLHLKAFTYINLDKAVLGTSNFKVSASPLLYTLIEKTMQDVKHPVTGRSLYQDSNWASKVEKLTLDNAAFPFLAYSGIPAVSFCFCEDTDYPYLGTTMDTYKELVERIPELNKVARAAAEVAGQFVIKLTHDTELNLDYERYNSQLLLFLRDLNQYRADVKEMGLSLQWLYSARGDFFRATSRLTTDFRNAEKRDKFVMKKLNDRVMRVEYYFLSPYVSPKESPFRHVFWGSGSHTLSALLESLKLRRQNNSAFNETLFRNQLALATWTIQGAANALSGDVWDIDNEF
The assay can be described thus: SPR.
The molecule B1 had an equilibrium dissociation constant (Kd) of 24.7 nM.

Take B2: the Kd turned out to be 26.8 nM.

Another assay addresses human TfR ECD (human). The experiment in a line: ELISA. In general terms: In an ELISA, binding on a coated surface is turned into a signal by an enzyme label.
On to B3, for which the EC50 – broadly, the concentration that produces a half-maximal response – was 21.1 ng/mL.

As for B4, the response was half-maximal at 0.4 ng/mL (EC50).

With B5, the EC50 amounted to 0.3 ng/mL.

The molecule B6 came in with an EC50 of 0.3 ng/mL.

Molecule B7 displayed an EC50 of 0.3 ng/mL.

Molecule B8 came in with an EC50 of 0.2 ng/mL.

Molecule B9 gave an EC50 of 1.5 ng/mL.

Molecule B10 came in with an EC50 of 0.3 ng/mL.

As to B11, the midpoint of the response, the EC50, lay at 0.3 ng/mL.

As for B12, the EC50 was determined as 0.3 ng/mL.

For B13, the EC50 came to 0.4 ng/mL.

In turn, B14 came in with an EC50 of 59.6 ng/mL.

In turn, B15 came in with a concentration for a half-maximal effect (EC50) of 0.4 ng/mL.

As for B16, the response was half-maximal at 0.2 ng/mL (EC50).

The molecule B17 had a 50% effective concentration (EC50) of 0.2 ng/mL.

B18 registered a concentration for a half-maximal effect (EC50) of 0.2 ng/mL.

Consider B19, for which the EC50 worked out at 0.2 ng/mL.

Regarding B20, the response was half-maximal at 0.4 ng/mL (EC50).

Regarding B21, the EC50 stood at 0.3 ng/mL.

In the case of B22, the EC50 worked out at 0.2 ng/mL.

With B23, a half-maximal response (EC50) required 0.1 ng/mL.

With B24, the concentration for a half-maximal effect (EC50) was determined as 0.3 ng/mL.

For the molecule B25, the EC50 was found to be 0.4 ng/mL.

The molecule B26 displayed an EC50 of 0.05 ng/mL.

Molecule B27 had an EC50 of 1.6 ng/mL.

Molecule B28 yielded an EC50 of 1.1 ng/mL.

Take B29: it took 20.6 ng/mL to reach a half-maximal effect (EC50).

B30 yielded an EC50 of 0.05 ng/mL.

For the molecule B31, the EC50 came to 0.8 ng/mL.

The target in a further assay is T1, cyno TfR ECD. The experiment in a line: ELISA.
B3 showed an EC50 of 1470 ng/mL.

In the case of B4, it took 1.4 ng/mL to reach a half-maximal effect (EC50).

In the case of B5, the EC50 came out at 0.9 ng/mL.

For the molecule B6, the concentration for a half-maximal effect (EC50) turned out to be 0.7 ng/mL.

Consider B7, for which the EC50 came to 0.7 ng/mL.

With B8, the response was half-maximal at 0.8 ng/mL (EC50).

B9: a half-maximal response (EC50) required 12.5 ng/mL.

B10 gave a half-maximal effective concentration (EC50) of 0.6 ng/mL.

Molecule B11 registered an EC50 of 0.9 ng/mL.

As for B12, the EC50 amounted to 1.1 ng/mL.

Consider B13, for which the response was half-maximal at 0.9 ng/mL (EC50).

Molecule B14 registered an EC50 of 362 ng/mL.

B15 registered an EC50 of 0.5 ng/mL.

Take B16: the concentration giving a half-maximal response (EC50) came to 0.6 ng/mL.

Consider B17, for which a half-maximal response (EC50) required 0.5 ng/mL.

Consider B18, for which the EC50 is 0.8 ng/mL.

For the molecule B19, the concentration for a half-maximal effect (EC50) came to 0.3 ng/mL.

Molecule B20 gave an EC50 of 0.8 ng/mL.

Regarding B21, the EC50 is 0.5 ng/mL.

Molecule B22 yielded an EC50 of 0.6 ng/mL.

B23 returned a concentration giving a half-maximal response (EC50) of 0.4 ng/mL.

Regarding B24, the midpoint of the response, the EC50, lay at 1 ng/mL.

B25 came in with an EC50 of 1.1 ng/mL.

B26 gave an EC50 of 0.1 ng/mL.

B27: the half-maximal effective concentration (EC50) was found to be 4 ng/mL.

As to B28, the EC50 is 6.1 ng/mL.

For the molecule B29, the EC50 is 410 ng/mL.

Consider B30, for which the EC50 turned out to be 0.1 ng/mL.

B31 gave an EC50 of 1.8 ng/mL.

The values are drawn from patent US11008403 (dated 2021).
